Laboratory results: paper PMC11381518, “Human cell surface-AAV interactomes identify LRP6 as blood-brain barrier transcytosis receptor and immune cytokine IL3 as AAV9 binder” (Nature Communications, 2024)

T1: human LRP6 (AA 20-1368) tagged with human IgG1 Fc (human, UniProt O75581 20-1368)
T1 construct: human LRP6, AA 20-1368; the methods call it full-length, the results the extracellular domain; also called human LRP6-Fc; human LRP6 extracellular domain; source: bought: Bio-Techne
T1 sequence (looked up): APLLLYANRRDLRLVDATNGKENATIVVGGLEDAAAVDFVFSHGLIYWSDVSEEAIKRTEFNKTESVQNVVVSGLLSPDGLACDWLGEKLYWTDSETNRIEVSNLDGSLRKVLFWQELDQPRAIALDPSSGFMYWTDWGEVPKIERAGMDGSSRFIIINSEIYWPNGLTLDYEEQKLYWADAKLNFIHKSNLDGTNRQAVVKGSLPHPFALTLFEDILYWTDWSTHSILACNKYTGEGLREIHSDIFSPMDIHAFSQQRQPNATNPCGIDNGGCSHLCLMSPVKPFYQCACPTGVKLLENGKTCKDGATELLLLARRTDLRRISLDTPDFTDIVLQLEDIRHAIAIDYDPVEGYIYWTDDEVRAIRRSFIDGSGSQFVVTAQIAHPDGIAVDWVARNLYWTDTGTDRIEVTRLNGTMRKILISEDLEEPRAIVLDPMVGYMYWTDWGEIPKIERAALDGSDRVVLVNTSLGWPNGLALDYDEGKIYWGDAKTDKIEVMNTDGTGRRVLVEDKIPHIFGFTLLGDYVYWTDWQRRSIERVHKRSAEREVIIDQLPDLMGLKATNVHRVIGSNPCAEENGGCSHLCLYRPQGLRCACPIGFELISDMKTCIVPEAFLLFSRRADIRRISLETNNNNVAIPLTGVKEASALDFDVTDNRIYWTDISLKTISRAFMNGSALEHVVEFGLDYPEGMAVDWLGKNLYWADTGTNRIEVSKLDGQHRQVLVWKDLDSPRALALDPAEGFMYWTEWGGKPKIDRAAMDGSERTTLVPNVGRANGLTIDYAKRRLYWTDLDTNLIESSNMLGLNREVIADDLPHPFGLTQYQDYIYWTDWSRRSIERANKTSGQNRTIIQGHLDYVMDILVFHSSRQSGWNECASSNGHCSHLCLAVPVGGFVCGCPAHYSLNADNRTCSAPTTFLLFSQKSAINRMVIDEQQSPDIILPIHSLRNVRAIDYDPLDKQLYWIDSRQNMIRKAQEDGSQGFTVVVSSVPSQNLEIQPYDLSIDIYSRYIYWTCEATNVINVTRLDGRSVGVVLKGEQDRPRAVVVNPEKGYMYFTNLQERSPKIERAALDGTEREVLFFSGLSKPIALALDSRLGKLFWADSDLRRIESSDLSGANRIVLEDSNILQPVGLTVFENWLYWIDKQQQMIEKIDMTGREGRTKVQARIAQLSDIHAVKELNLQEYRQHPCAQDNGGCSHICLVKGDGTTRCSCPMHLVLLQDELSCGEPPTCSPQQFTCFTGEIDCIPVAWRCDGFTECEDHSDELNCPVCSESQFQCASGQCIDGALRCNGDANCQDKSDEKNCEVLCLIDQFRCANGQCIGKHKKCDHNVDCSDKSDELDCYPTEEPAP

T2: mouse LRP6 (AA 20-1366) with a 6xHis tag (mouse, UniProt O88572 20-1366)
T2 construct: mouse LRP6 extracellular domain, AA 20-1366; also called full length extracellular domain of mouse LRP6; source: bought: Bio-Techne
T2 sequence (looked up): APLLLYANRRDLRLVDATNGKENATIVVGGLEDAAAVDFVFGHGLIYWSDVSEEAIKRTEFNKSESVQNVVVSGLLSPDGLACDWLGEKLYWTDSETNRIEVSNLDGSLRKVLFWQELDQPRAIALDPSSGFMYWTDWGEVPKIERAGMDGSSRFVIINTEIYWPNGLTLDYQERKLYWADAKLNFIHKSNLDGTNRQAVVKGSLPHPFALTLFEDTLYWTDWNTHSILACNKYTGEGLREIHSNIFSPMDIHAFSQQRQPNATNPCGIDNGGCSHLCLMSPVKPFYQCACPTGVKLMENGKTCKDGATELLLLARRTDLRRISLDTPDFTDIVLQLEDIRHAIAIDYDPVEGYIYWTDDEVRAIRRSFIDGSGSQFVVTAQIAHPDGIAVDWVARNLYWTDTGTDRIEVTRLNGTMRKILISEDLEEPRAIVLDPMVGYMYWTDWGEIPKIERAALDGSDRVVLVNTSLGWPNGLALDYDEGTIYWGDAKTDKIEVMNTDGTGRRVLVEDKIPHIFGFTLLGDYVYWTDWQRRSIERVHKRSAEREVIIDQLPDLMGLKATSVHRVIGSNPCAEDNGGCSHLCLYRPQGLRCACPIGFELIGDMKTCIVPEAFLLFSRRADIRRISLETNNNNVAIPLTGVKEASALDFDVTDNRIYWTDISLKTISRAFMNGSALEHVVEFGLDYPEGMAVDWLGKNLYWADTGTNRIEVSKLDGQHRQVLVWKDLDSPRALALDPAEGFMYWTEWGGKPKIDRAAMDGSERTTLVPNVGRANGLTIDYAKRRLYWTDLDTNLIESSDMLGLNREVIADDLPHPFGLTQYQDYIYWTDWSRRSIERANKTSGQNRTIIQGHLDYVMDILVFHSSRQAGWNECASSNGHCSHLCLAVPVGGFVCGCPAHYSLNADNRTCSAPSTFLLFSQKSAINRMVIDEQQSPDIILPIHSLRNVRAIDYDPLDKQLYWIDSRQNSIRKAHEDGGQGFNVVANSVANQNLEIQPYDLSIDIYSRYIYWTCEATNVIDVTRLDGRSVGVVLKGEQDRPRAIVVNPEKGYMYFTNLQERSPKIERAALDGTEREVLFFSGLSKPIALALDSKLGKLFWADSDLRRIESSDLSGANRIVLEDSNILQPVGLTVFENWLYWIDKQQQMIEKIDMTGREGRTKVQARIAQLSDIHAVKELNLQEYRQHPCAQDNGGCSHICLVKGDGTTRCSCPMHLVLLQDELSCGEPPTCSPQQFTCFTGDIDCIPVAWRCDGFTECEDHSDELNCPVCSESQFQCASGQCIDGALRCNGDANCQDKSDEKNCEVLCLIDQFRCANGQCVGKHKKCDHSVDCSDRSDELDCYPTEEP

B1: AAV9-X1.1 capsid (complex, adeno-associated virus 9, UniProt Q6JC40 1-736, looked up)
chain: MAADGYLPDWLEDNLSEGIREWWALKPGAPQPKANQQHQDNARGLVLPGYKYLGPGNGLDKGEPVNAADAAALEHDKAYDQQLKAGDNPYLKYNHADAEFQERLKEDTSFGGNLGRAVFQAKKRLLEPLGLVEEAAKTAPGKKRPVEQSPQEPDSSAGIGKSGAQPAKKRLNFGQTGDTESVPDPQPIGEPPAAPSGVGSLTMASGGGAPVADNNEGADGVGSSSGNWHCDSQWLGDRVITTSTRTWALPTYNNHLYKQISNSTSGGSSNDNAYFGYSTPWGYFDFNRFHCHFSPRDWQRLINNNWGFRPKRLNFKLFNIQVKEVTDNNGVKTIANNLTSTVQVFTDSDYQLPYVLGSAHEGCLPPFPADVFMIPQYGYLTLNDGSQAVGRSSFYCLEYFPSQMLRTGNNFQFSYEFENVPFHSSYAHSQSLDRLMNPLIDQYLYYLSKTIDGAATKNQTLKFSVAGPSNMAVQGRNYIPGPSYRQQRVSTTVTQNNNSEFAWPGASSWALNGRNSLMNPGPAMASHKEGEDRFFPLSGSLIFGKQGTGRDNVDADKVMITNEEEIKTTNPVATESYGQVATNHQSAQGNNTRSVAQAQTGWVQNQGILPGMVWQDRDVYLQGPIWAKIPHTDGNFHPSPLMGGFGMKHPPPQILIKNTPVPADPPTAFNKDKLNSFITQYSTGQVSVEIEWELQKENSKRWNPEIQYTSNYYKSNNVEFAVNTEGVYSEPRPIGTRYLTRNL
notes: AAV9 capsid protein VP1 with changes in VR-IV and VR-VIII; numbers count on VP1; also called AAV-X1.1; source: HEK293 cells, triple transfected, purified (iodixanol gradient); copies: 60
B2: AAV.CAP-Mac capsid (complex, adeno-associated virus 9, UniProt Q6JC40 1-736, looked up)
chain: MAADGYLPDWLEDNLSEGIREWWALKPGAPQPKANQQHQDNARGLVLPGYKYLGPGNGLDKGEPVNAADAAALEHDKAYDQQLKAGDNPYLKYNHADAEFQERLKEDTSFGGNLGRAVFQAKKRLLEPLGLVEEAAKTAPGKKRPVEQSPQEPDSSAGIGKSGAQPAKKRLNFGQTGDTESVPDPQPIGEPPAAPSGVGSLTMASGGGAPVADNNEGADGVGSSSGNWHCDSQWLGDRVITTSTRTWALPTYNNHLYKQISNSTSGGSSNDNAYFGYSTPWGYFDFNRFHCHFSPRDWQRLINNNWGFRPKRLNFKLFNIQVKEVTDNNGVKTIANNLTSTVQVFTDSDYQLPYVLGSAHEGCLPPFPADVFMIPQYGYLTLNDGSQAVGRSSFYCLEYFPSQMLRTGNNFQFSYEFENVPFHSSYAHSQSLDRLMNPLIDQYLYYLSKTINGSGQNQQTLKFSVAGPSNMAVQGRNYIPGPSYRQQRVSTTVTQNNNSEFAWPGASSWALNGRNSLMNPGPAMASHKEGEDRFFPLSGSLIFGKQGTGRDNVDADKVMITNEEEIKTTNPVATESYGQVATNHQSAQLNTTKPIAQAQTGWVQNQGILPGMVWQDRDVYLQGPIWAKIPHTDGNFHPSPLMGGFGMKHPPPQILIKNTPVPADPPTAFNKDKLNSFITQYSTGQVSVEIEWELQKENSKRWNPEIQYTSNYYKSNNVEFAVNTEGVYSEPRPIGTRYLTRNL
notes: AAV9 capsid protein VP1 with an insertion in VR-VIII; numbers count on VP1; source: HEK293 cells, triple transfected, purified (iodixanol gradient); copies: 60
B3: mouse LRP6-E1E2 (N-half of the extracellular domain, AA 20-628) tagged with mouse IgG2a Fc (Fc fusion, UniProt O88572 20-628, looked up)
chain: APLLLYANRRDLRLVDATNGKENATIVVGGLEDAAAVDFVFGHGLIYWSDVSEEAIKRTEFNKSESVQNVVVSGLLSPDGLACDWLGEKLYWTDSETNRIEVSNLDGSLRKVLFWQELDQPRAIALDPSSGFMYWTDWGEVPKIERAGMDGSSRFVIINTEIYWPNGLTLDYQERKLYWADAKLNFIHKSNLDGTNRQAVVKGSLPHPFALTLFEDTLYWTDWNTHSILACNKYTGEGLREIHSNIFSPMDIHAFSQQRQPNATNPCGIDNGGCSHLCLMSPVKPFYQCACPTGVKLMENGKTCKDGATELLLLARRTDLRRISLDTPDFTDIVLQLEDIRHAIAIDYDPVEGYIYWTDDEVRAIRRSFIDGSGSQFVVTAQIAHPDGIAVDWVARNLYWTDTGTDRIEVTRLNGTMRKILISEDLEEPRAIVLDPMVGYMYWTDWGEIPKIERAALDGSDRVVLVNTSLGWPNGLALDYDEGTIYWGDAKTDKIEVMNTDGTGRRVLVEDKIPHIFGFTLLGDYVYWTDWQRRSIERVHKRSAEREVIIDQLPDLMGLKATSVHRVIGSNPCAEDNGGCSHLCLYRPQGLRCACPIGFELIGDMKTCI
notes: mouse LRP6, YWTD domains 1 and 2 (E1E2), AA 20-628; source: bought: Bio-Techne

Assays:
Conditions in all cases: both partners purified
[1] = target: T1, human LRP6 (AA 20-1368) tagged with …; assay: SPR; Sierra SPR-32, protein A sensor chip; human LRP6-Fc captured at 1200-1500 RU in HBS-EP+ (Fig. 4b); AAV injected at 10 µL per min for 240 s, 600 s dissociation; AAV from 2.4 × 10^12 v.g. per mL in twofold dilutions; apparent affinity, avid format
[2] = target: T2, mouse LRP6 (AA 20-1366) with a 6xHis tag; assay: pull-down; prey AAVs mixed with His-tagged bait protein and Ni-NTA resin in DPBS with 20 mM imidazole, 1 h at 4 °C; eluate analysed by Western blot with anti-VP1/VP2/VP3 and anti-6xHis
AAV9-X1.1 capsid = target: B1; assay: SPR; Sierra SPR-32, protein A sensor chip; Fc-fusion protein captured at 600-800 RU in HBS-EP+; AAV injected at 10 µL per min for 240 s, 600 s dissociation; AAV from 2.4 × 10^12 v.g. per mL in twofold dilutions; avid format
AAV.CAP-Mac capsid = target: B2; assay: as above
AAV-BI30 capsid = target: T3, AAV-BI30 capsid (adeno-associated virus 9, UniProt Q6JC40 1-736, VR VIII AA587-590 AQ - - - - - - - AQ to AQNNSTRGGAQ); assay: as above
T3 construct: AAV9 capsid protein VP1 with an insertion in VR-VIII; numbers count on VP1; source: HEK293 cells, triple transfected, purified (iodixanol gradient); copies: 60

Binder	binding result [1]	binding result [2]	binding result (AAV9-X1.1 capsid)	binding result (AAV.CAP-Mac capsid)	binding result (AAV-BI30 capsid)
B1	binds	binds			
B2	binds	binds			
B3			binds	binds	binds
